Experimental data as given in patent US11951175B2, “Bioconjugates containing sulfamide linkers for use in treatment” (priority 2016, dated 2024).

Experiments:
[1] = reported value for Adcetris; cited from earlier work
[2] = Rat safety study with cAC10 ADCs 115, 116 and Adcetris; format: in vivo, Wistar rats; conditions: as in legend of FIG. 19a-c: 115/116 at 40, 60, 70 or 80 mg/kg, Adcetris at 15, 20 or 40 mg/kg, mean body weight
Description: […] The test items were administered via intravenous (bolus) injection using a microflex infusion set introduced into a tail vein (2 mL/kg at 1 mL/min). One group of animals was treated with vehicle (control). After dosing, all animals were maintained for a 12-day observation period. Surviving animals were euthanized on day 12. Each animal was weighed at the time of randomization/selection, prior to dosing (day 0) and on all subsequent days up to day 12. Any individual animal with a single observation of >30% body weight loss or three consecutive measurements of >25% body weight loss was euthanized. All animals (including any found dead or killed moribund) were submitted to full necropsy procedures. Histopathological examinations of the liver, spleen and sciatic nerve was performed for all animals. Blood samples (including for animals killed moribund) were collected and subjected to determination of both haematological as well as serum clinical chemistry parameters.

Trastuzumab = experiment: Trimming of trastuzumab glycans by EndoSH; format: biochemical; conditions: 0.1 w/w % EndoSH, 37° C., after 1 hour, 25 mM Tris pH 8, MS analysis
Description: Trastuzumab (obtained from Epirus biopharma (Utrecht, The Netherlands); 14 mg/mL) in 25 mM Tris buffer pH 8, was trimmed using a concentration of either 0.1 or 1 w/w % EndoSH. The reactions, 350 μg trastuzumab (25 μL) and the appropriate amount of EndoSH, were stirred at 37° C. and analyzed by MS analysis over time, 1 to 3 hours. Samples were subjected to Fabricator treatment prior to analysis.

[3] = tested on: Trastuzumab having high-mannose glycans; experiment: Trimming of high-mannose trastuzumab glycans by EndoSH; format: biochemical; conditions: 1 w/w % EndoSH, 37° C., after 3 hours, 25 mM Tris pH 8, MS analysis
Description: Trastuzumab having high-mannose glycans (obtained via transient expression in CHO K1 cells in the presence of kifunensine performed by Evitria (Zurich, Switzerland)) (14 mg/mL) in 25 mM Tris buffer pH 8, was trimmed using a concentration of either 0.1 or 1 w/w % EndoSH. The reactions, 350 μg high-mannose trastuzumab (25 μL) and the appropriate amount of EndoSH, were stirred at 37° C. and analyzed by MS analysis over time, 1-3 hours. Samples were subjected to Fabricator treatment prior to analysis.

## Adcetris: positive control; DAR4 ADC with antibody brentuximab and payload MMAE [reference compound]
[1]
  MTD (reported): 18 mg/kg
[2]
  MTD: 15 mg/kg

B1: EndoSH (protein)
chain: MPSIDSLHYLSENSKKEFKEELSKAGQESQKVKEILAKAQQADKQAQELAKMKIPEKIPMKPLHGPLYGGYFRTWHDKTSDPTEKDKVNSMGELPKEVDLAFIFHDWTKDYSLFWKELATKHVPKLNKQGTRVIRTIPWRFLAGGDNSGIAEDTSKYPNTPEGNKALAKAIVDEYVYKYNLDGLDVDVEHDSIPKVDKKEDTAGVERSIQVFEEIGKLIGPKGVDKSRLFIMDSTYMADKNPLIERGAPYINLLLVQVYGSQGEKGGWEPVSNRPEKTMEERWQGYSKYIRPEQYMIGFSFYEENAQEGNLWYDINSRKDEDKANGINTDITGTRAERYARWQPKTGGVKGGIFSYAIDRDGVAHQPKKYAKQKEFKDATDNIFHSDYSVSKALKTVMLKDKSYDLIDEKDFPDKALREAVMAQVGTRKGDLERFNGTLRLDNPAIQSLEGLNKFKKLAQLDLIGLSRITKLDRSVLPANMKPGKDTLETVLETYKKDNKEEPATIPPVSLKVSGLTGLKELDLSGFDRETLAGLDAATLTSLEKVDISGNKLDLAPGTENRQIFDTMLSTISNHVGSNEQTVKFDKQKPTGHYPDTYGKTSLRLPVANEKVDLQSQLLFGTVTNQGTLINSEADYKAYQNHKIAGRSFVDSNYHYNNFKVSYENYTVKVTDSTLGTTTDKTLATDKEETYKVDFFSPADKTKAVHTAKVIVGDEKTMMVNLAEGATVIGGSADPVNARKVFDGQLGSETDNISLGWDSKQSIIFKLKEDGLIKHWRFFNDSARNPETTNKPIQEASLQIFNIKDYNLDNLLENPNKFDDEKYWITVDTYSAQGERATAFSNTLNNITSKYWRVVFDTKGDRYSSPVVPELQILGYPLPNADTIMKTVTTAKELSQQKDKFSQKMLDELKIKEMALETSLNSKIFDVTAINANAGVLKDCIEKRQLLKKGGGGSGGGGSGGGGSHHHHHHEFGGGGSGGGGSGGGGSAPAPVKQGPTSVAYVEVNNNSMLNVGKYTLADGGGNAFDVAVIFAANINYDTGTKTAYLHFNENVQRVLDNAVTQIRPLQQQGIKVLLSVLGNHQGAGFANFPSQQAASAFAKQLSDAVAKYGLDGVDFDDEYAEYGNNGTAQPNDSSFVHLVTALRANMPDKIISLYNIGPAASRLSYGGVDVSDKFDYAWNPYYGTWQVPGIALPKAQLSPAAVEIGRTSRSTVADLARRTVDEGYGVYLTYNLDGGDRTADVSAFTRELYGSEAVRTP
modifications: fusion protein EndoSH
Trastuzumab
  conversion to the trimmed product (core GlcNAc): Full conversions
[3]
  conversion to the trimmed product (core GlcNAc): Full conversions
